Legend:
[1] = molecular target: His-tagged recombinant human SMN protein (ProteinTech, catalog # ag14333) (human) (UniProt Q16637); experiment: Erenna sandwich assay, capture MABE230 12.5 µg/mg MPs; Det Ab 500 ng/mL; SMN 0.12 pg/mL
[2] = molecular target: His-tagged recombinant human SMN protein (ProteinTech, catalog # ag14333) (human) (UniProt Q16637); experiment: Erenna sandwich assay, capture MABE230 12.5 µg/mg MPs; Det Ab 500 ng/mL; SMN 0.23 pg/mL
[3] = molecular target: His-tagged recombinant human SMN protein (ProteinTech, catalog # ag14333) (human) (UniProt Q16637); experiment: Erenna sandwich assay, capture MABE230 12.5 µg/mg MPs; Det Ab 500 ng/mL; SMN 1.85 pg/mL
[4] = molecular target: His-tagged recombinant human SMN protein (ProteinTech, catalog # ag14333) (human) (UniProt Q16637); experiment: Erenna sandwich assay, capture MABE230 12.5 µg/mg MPs; Det Ab 500 ng/mL; SMN 7.41 pg/mL
[5] = molecular target: His-tagged recombinant human SMN protein (ProteinTech, catalog # ag14333) (human) (UniProt Q16637); experiment: Erenna sandwich assay, capture MABE230 12.5 µg/mg MPs; Det Ab 1000 ng/mL; SMN 0.12 pg/mL
[6] = molecular target: His-tagged recombinant human SMN protein (ProteinTech, catalog # ag14333) (human) (UniProt Q16637); experiment: Erenna sandwich assay, capture MABE230 12.5 µg/mg MPs; Det Ab 1000 ng/mL; SMN 0.93 pg/mL
[7] = molecular target: His-tagged recombinant human SMN protein (ProteinTech, catalog # ag14333) (human) (UniProt Q16637); experiment: Erenna sandwich assay, capture MABE230 12.5 µg/mg MPs; Det Ab 500 ng/mL; SMN 22.22 pg/mL
[8] = molecular target: His-tagged recombinant human SMN protein (ProteinTech, catalog # ag14333) (human) (UniProt Q16637); experiment: Erenna sandwich assay, capture MABE230 12.5 µg/mg MPs; Det Ab 1000 ng/mL; SMN 200.00 pg/mL
[9] = molecular target: endogenous SMN protein in human CSF (human) (UniProt Q16637); experiment: Erenna sandwich assay, capture MABE230; human CSF sample 2, unspiked (endogenous SMN only)
[10] = molecular target: His-tagged recombinant human SMN protein (ProteinTech, catalog # ag14333) (human) (UniProt Q16637); experiment: Erenna sandwich assay, capture MABE230; SMN 2 pg/mL, MPs 5 µg/well, Det Ab 100 ng/mL, Cap Ab/MP 25 µg/mg
[11] = molecular target: His-tagged recombinant human SMN protein (ProteinTech, catalog # ag14333) (human) (UniProt Q16637); experiment: Erenna sandwich assay, capture MABE230; SMN 2 pg/mL, MPs 5 µg/well, Det Ab 500 ng/mL, Cap Ab/MP 25 µg/mg
[12] = molecular target: His-tagged recombinant human SMN protein (ProteinTech, catalog # ag14333) (human) (UniProt Q16637); experiment: Erenna sandwich assay, capture MABE230; SMN 2 pg/mL, MPs 10 µg/well, Det Ab 500 ng/mL, Cap Ab/MP 25 µg/mg
[13] = molecular target: His-tagged recombinant human SMN protein (ProteinTech, catalog # ag14333) (human) (UniProt Q16637); experiment: Erenna sandwich assay, capture MABE230; SMN 2 pg/mL, MPs 5 µg/well, Det Ab 50 ng/mL, Cap Ab/MP 12.5 µg/mg
[14] = molecular target: His-tagged recombinant human SMN protein (ProteinTech, catalog # ag14333) (human) (UniProt Q16637); experiment: Erenna sandwich assay, capture MABE230; SMN 2 pg/mL, MPs 10 µg/well, Det Ab 1000 ng/mL, Cap Ab/MP 25 µg/mg
[15] = molecular target: His-tagged recombinant human SMN protein (ProteinTech, catalog # ag14333) (human) (UniProt Q16637); experiment: Erenna sandwich assay, capture MABE230; SMN 2 pg/mL, MPs 5 µg/well, Det Ab 500 ng/mL, Cap Ab/MP 12.5 µg/mg
[16] = molecular target: His-tagged recombinant human SMN protein (ProteinTech, catalog # ag14333) (human) (UniProt Q16637); experiment: Erenna sandwich assay, capture MABE230; SMN 2 pg/mL, MPs 5 µg/well, Det Ab 1000 ng/mL, Cap Ab/MP 12.5 µg/mg
[17] = molecular target: His-tagged recombinant human SMN protein (ProteinTech, catalog # ag14333) (human) (UniProt Q16637); experiment: Erenna sandwich assay, capture MABE230; human CSF sample 2 spiked with recombinant SMN 5.0 pg/mL (endogenous SMN also present)
[18] = molecular target: His-tagged recombinant human SMN protein (ProteinTech, catalog # ag14333) (human) (UniProt Q16637); experiment: Erenna sandwich assay, capture MABE230; human CSF sample 4 spiked with recombinant SMN 5.0 pg/mL (endogenous SMN also present)
[19] = molecular target: His-tagged recombinant human SMN protein (ProteinTech, catalog # ag14333) (human) (UniProt Q16637); experiment: Erenna sandwich assay, capture MABE230; human CSF sample 3 spiked with recombinant SMN 10.0 pg/mL (endogenous SMN also present)
[20] = molecular target: His-tagged recombinant human SMN protein (ProteinTech, catalog # ag14333) (human) (UniProt Q16637); experiment: Erenna sandwich assay, capture MABE230; human CSF sample 4 spiked with recombinant SMN 10.0 pg/mL (endogenous SMN also present)
[21] = molecular target: His-tagged recombinant human SMN protein (ProteinTech, catalog # ag14333) (human) (UniProt Q16637); experiment: Erenna sandwich assay, capture MABE230; human CSF sample 5 spiked with recombinant SMN 10.0 pg/mL (endogenous SMN also present)

detected events (DE) (detected events) [1]: 154
event photons (EP) (event photons) [1]: 19500
detected events (DE) (detected events) [2]: 301
event photons (EP) (event photons) [2]: 40000
detected events (DE) (detected events) [3]: 1850
event photons (EP) (event photons) [3]: 267000
detected events (DE) (detected events) [4]: 5960
event photons (EP) (event photons) [4]: 1.05e+06
detected events (DE) (detected events) [5]: 193
event photons (EP) (event photons) [5]: 26300
detected events (DE) (detected events) [6]: 1170
event photons (EP) (event photons) [6]: 171000
detected events (DE) (detected events) [7]: 12200
event photons (EP) (event photons) [7]: 3.85e+06
detected events (DE) (detected events) [8]: 9360
event photons (EP) (event photons) [8]: 2.04e+07
detected events (DE) (detected events) [9]: 240
detected events (DE) (detected events) [10]: 817
detected events (DE) (detected events) [11]: 1930
detected events (DE) (detected events) [12]: 2400
detected events (DE) (detected events) [13]: 450
detected events (DE) (detected events) [14]: 2670
detected events (DE) (detected events) [15]: 1950
detected events (DE) (detected events) [16]: 2590
detected events (DE) (detected events) [17]: 5310
detected events (DE) (detected events) [18]: 5810
detected events (DE) (detected events) [19]: 9140
detected events (DE) (detected events) [20]: 8660
detected events (DE) (detected events) [21]: 9440
Substance: ProteinTech anti-SMN2 (catalog #60154-1-Ig) (antibody)
